The results in this text go back to US20210388084A1 (JJP BIOLOGICS SP Z O O, published 2021).

Usually EC50 stands for the concentration needed to bring the measured effect to its halfway point.

The target in test [1] is T1, membrane-bound full-length human CD89 (human, UniProt P24071 22-287).
T1 construct: on stably or transiently transfected HEK293F cells; also called FcalphaRI; huCD89
The test is described as follows: FACS, HEK293F-huCD89, unlabeled Ab 10 ug/mL first; competitor MIP8a-PE.
Description: Then, 10 μL/tube (ie, 0.1×10⁶ cells) of these cells were incubated with or without 100 μL purified mouse anti-human CD89 antibody at 10 μg/mL (in PBS/BSA/NaN₃) for 30 minutes at 4° C. […] After extensive washing in PBS/BSA/NaN₃, cells were fixed in 2% formaldehyde in PBS/BSA/NaN₃ for 30 minutes at 4° C.

Test [2] concerns the target T1, membrane-bound full-length human CD89. Description: FACS, HEK293F-huCD89, 4C +NaN3, IgA then Ab 10 ug/mL; pre-bound non-aggr serum IgA. (Flow cytometry measures light scatter and fluorescence of single cells or particles in a stream.)
Description: After this (ie, without washing), 50 μL purified mouse anti-human CD89 antibody at 20 μg/mL (in PBS/BSA/NaN₃) was added to these cells, and incubated for another 30 minutes at 4° C. […] After extensive washing in PBS/BSA/NaN₃, 1:200 diluted PE-conjugated streptavidin (Jackson ImmunoResearch) was added, and incubated for 30 minutes at 4° C. After extensive washing in PBS/BSA/NaN₃, cells were fixed in 2% formaldehyde in PBS/BSA/NaN₃ for 30 minutes at 4° C.
Test [3] has the same target. Description: FACS, HEK293F-huCD89, 4C +NaN3, Ab 10 ug/mL then IgA; competitor non-aggr serum IgA.
Description: Then, 10 μL/tube (ie, 0.1×10⁶ cells) of these cells were incubated with or without 50 μL purified mouse anti-human CD89 antibody at 20 μg/mL (in PBS/BSA/NaN₃) for 30 minutes at 4° C. […] After extensive washing in PBS/BSA/NaN₃, 1:200 diluted PE-conjugated streptavidin (Jackson ImmunoResearch) was added, and incubated for 30 minutes at 4° C. After extensive washing in PBS/BSA/NaN₃, cells were fixed in 2% formaldehyde in PBS/BSA/NaN₃ for 30 minutes at 4° C.
For test [4] the target is unchanged. The test is described as follows: FACS, HEK293F-huCD89, 4C +NaN3, IgA then Ab 10 ug/mL; pre-bound heat-aggr serum IgA.
Description: (§1) After extensive washing in PBS/BSA/NaN₃, 1:200 diluted PE-conjugated streptavidin (Jackson ImmunoResearch) was added, and incubated for 30 minutes at 4° C. After extensive washing in PBS/BSA/NaN₃, cells were fixed in 2% formaldehyde in PBS/BSA/NaN₃ for 30 minutes at 4° C.
The target is the same in test [5]. The test is described as follows: FACS, HEK293F-huCD89, 4C +NaN3, Ab 10 ug/mL then IgA; competitor heat-aggr serum IgA.
Description: To mimic human IgA immune complexes, human (serum-derived) IgA (Bethyl Laboratories) was heated at 63° C. for 30 minutes, and cooled down to RT followed by centrifugation at 4° C. 12000×g for 2 minutes to remove any insoluble protein precipitation.
Then, 10 μL/tube (ie, 0.1×10⁶ cells) of these cells were incubated with or without 50 μL purified mouse anti-human CD89 antibody at 20 μg/mL (in PBS/BSA/NaN₃) for 30 minutes at 4° C.
Test [6] has the same target. Description: FACS, HEK293F-huCD89, 24 h 37C no NaN3, IgA then Ab 10 ug/mL; pre-bound non-aggr serum IgA.
Description: as §1
For test [7] the target is unchanged. The test is described as follows: FACS, HEK293F-huCD89, 24 h 37C no NaN3, Ab 10 ug/mL then IgA; competitor non-aggr serum IgA.
Description: as §1
Test [8] has the same target. Description: FACS, HEK293F-huCD89, 24 h 37C no NaN3, IgA then Ab 10 ug/mL; pre-bound heat-aggr serum IgA.
Description: as §1
For test [9] the target is unchanged. Description: FACS, HEK293F-huCD89, 24 h 37C no NaN3, Ab 10 ug/mL then IgA; competitor heat-aggr serum IgA.
Description: as §1
Test [10] shares this target. The test is described as follows: FACS, HEK293F-huCD89, half-maximum binding.
Description: Then, 10 μL/tube (ie, 0.1×10⁶ cells) of these cells were incubated with or without 100 μL titrated (in PBS/BSA/NaN₃) purified chimeric mouse/human anti-human CD89 antibody/tube for 30 minutes at 4° C. […] After extensive washing in PBS/BSA/NaN₃, cells were subsequently incubated with 1:200 diluted PE-conjugated goat anti-human IgG Fey-specific antibodies (Jackson ImmunoResearch) for 30 minutes at 4° C. After extensive washing in PBS/BSA/NaN₃, cells were fixed in 2% formaldehyde in PBS/BSA/NaN₃ for 30 minutes at 4° C.
In test [11] the target is T2, recombinant C-terminal polyhistidine-tagged human (extracellular) CD89 (human, UniProt P24071 22-227).
T2 construct: extracellular domain; bought (Sino Biological); also called rhuCD89
Description: ELISA, coated rhuCD89, half-maximum binding. Background: ELISA stands for enzyme-linked immunosorbent assay.
Description: After extensive washing with PBS/0.05% Tween 20, plates were blocked with PBS/0.05% Tween 20/1% BSA (Roche) for 1 hour at RT. Subsequently, plates were incubated with 50 μL titrated (in block buffer) purified mouse anti-human CD89 antibody/well for 1 hour at RT. […] After extensive washing in PBS/0.05% Tween 20, binding of antibodies on rhuCD89 was determined with 1:5,000 diluted horseradish peroxidase (HRP)-conjugated goat anti-mouse IgG Fey-specific antibodies (Jackson ImmunoResearch) for 1 hour at RT, followed by a ready-to-use solution of TMB substrate (Invitrogen) for colorimetric detection.
After extensive washing with PBS/0.05% Tween 20, plates were blocked with PBS/0.05% Tween 20/1% BSA (Roche) for 1 hour at RT. Subsequently, plates were incubated with and without 50 μL titrated (in block buffer) purified chimeric mouse/human anti-human CD89 antibody/well for 1 hour at RT. After extensive washing in PBS/0.05% Tween 20, binding of antibodies on rhuCD89 was determined with 1:5,000 diluted horseradish peroxidase (HRP)-conjugated goat anti-human IgG Fey-specific antibodies (Jackson ImmunoResearch) for 1 hour at RT, followed by a ready-to-use solution of TMB substrate (Invitrogen) for colorimetric detection.

The target in test [12] is T3, chimeric bovine EC1-Fcγ2R/human EC2-CD89 (bovine/human chimera).
T3 chain: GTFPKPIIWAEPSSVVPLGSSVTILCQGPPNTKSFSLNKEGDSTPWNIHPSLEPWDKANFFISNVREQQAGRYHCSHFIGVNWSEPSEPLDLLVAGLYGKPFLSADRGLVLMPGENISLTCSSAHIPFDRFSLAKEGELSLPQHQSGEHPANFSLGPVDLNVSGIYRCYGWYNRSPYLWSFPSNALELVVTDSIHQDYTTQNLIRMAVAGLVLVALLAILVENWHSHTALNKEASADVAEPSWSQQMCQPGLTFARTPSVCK
Description: FACS, transiently transfected HEK293F.
Description: After 48 hours and/or 72 hours, the binding of CD89/IgA blocking mouse anti-human CD89 antibodies to aforementioned chimeric human/bovine receptors on transfected cells was analyzed by FACS analysis. To this end, transient transfected HEK293F cells were put at 10×10⁶ cells/mL in ice-chilled phosphate-buffered saline containing 0.1% BSA (Sigma)/0.05% NaN₃ (PBS/BSA/NaN₃) supplemented with 50 μg/mL human IgGs (blocking Fcγ receptors; Sigma) for 10 minutes at 4° C. Then, 10 μL/tube (ie, 0.1×10⁶ cells) of these cells were incubated with or without 100 μL purified mouse anti-human CD89 antibody at 10 μg/mL (in PBS/BSA/NaN₃) for 30 minutes at 4° C. […] After extensive washing in PBS/BSA/NaN₃, cells were subsequently incubated with 1:200 diluted PE-conjugated goat anti-mouse IgG Fey-specific antibodies (Jackson ImmunoResearch) for 30 minutes at 4° C. After extensive washing in PBS/BSA/NaN₃, cells were fixed in 2% formaldehyde in PBS/BSA/NaN₃ for 30 minutes at 4° C.

In test [13] the target is T4, membrane full-length cynomolgus monkey CD89 (cynomolgus monkey).
T4 construct: also called cynoCD89; cynomolgus EC1-CD89
T4 chain: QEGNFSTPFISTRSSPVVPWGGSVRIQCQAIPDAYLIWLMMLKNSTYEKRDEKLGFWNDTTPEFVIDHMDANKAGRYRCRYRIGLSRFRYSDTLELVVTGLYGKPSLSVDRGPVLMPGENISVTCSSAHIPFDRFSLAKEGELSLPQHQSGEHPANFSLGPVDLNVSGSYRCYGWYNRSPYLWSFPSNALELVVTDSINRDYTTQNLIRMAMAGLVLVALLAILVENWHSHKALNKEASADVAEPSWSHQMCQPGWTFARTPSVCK
The test is described as follows: FACS, transiently transfected HEK293F; - = no binding.

The target in test [14] is T5, chimeric human/cynomolgus monkey CD89-I (human/cynomolgus monkey chimera, UniProt P24071 22-287).
T5 construct: also called ΔGln22-Lys46 human EC1-CD89; I (22-46)
T5 chain: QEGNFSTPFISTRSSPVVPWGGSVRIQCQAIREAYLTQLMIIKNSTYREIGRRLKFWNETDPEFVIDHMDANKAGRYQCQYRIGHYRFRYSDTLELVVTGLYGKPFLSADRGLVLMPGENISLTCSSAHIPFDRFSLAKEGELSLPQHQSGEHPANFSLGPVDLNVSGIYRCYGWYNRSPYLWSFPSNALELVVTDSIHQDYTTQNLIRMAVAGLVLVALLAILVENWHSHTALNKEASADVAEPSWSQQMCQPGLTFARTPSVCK
The test is described as follows: FACS, transiently transfected HEK293F, 10 ug/mL; ++ strong, + intermediate, -/+ weak.
Description: (§2) After 48 hours, the binding of CD89/IgA blocking mouse anti-human CD89 antibodies to aforementioned chimeric human CD89/cynomolgus monkey CD89 constructs on transfected cells was analyzed by FACS analysis. To this end, transient transfected HEK293F cells were put at 10×10⁶ cells/mL in ice-chilled phosphate-buffered saline containing 0.1% BSA (Sigma)/0.05% NaN₃ (PBS/BSA/NaN₃) supplemented with 50 μg/mL human IgGs (blocking Fcγ receptors; Sigma) for 10 minutes at 4° C. Then, 10 μL/tube (ie, 0.1×10⁶ cells) of these cells were incubated with or without 100 μL purified mouse anti-human CD89 antibody at 10 μg/mL (in PBS/BSA/NaN₃) for 30 minutes at 4° C. […] After extensive washing in PBS/BSA/NaN₃, cells were subsequently incubated with 1:200 diluted PE-conjugated goat anti-mouse IgG Fey-specific antibodies (Jackson ImmunoResearch) for 30 minutes at 4° C. After extensive washing in PBS/BSA/NaN₃, cells were fixed in 2% formaldehyde in PBS/BSA/NaN₃ for 30 minutes at 4° C.

Test [15] deals with T6, chimeric human/cynomolgus monkey CD89-II (human/cynomolgus monkey chimera, UniProt P24071 22-287).
T6 construct: also called ΔIle47-Ile71 human EC1-CD89; II (47-71)
T6 chain: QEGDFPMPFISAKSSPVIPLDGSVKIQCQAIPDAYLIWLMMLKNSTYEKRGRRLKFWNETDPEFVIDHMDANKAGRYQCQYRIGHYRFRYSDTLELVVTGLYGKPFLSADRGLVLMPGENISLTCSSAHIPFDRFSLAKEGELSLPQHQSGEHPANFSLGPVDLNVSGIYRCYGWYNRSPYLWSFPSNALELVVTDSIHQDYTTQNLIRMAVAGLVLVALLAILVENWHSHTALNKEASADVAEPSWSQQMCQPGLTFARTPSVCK
The test is described as above.
Description: as §2

Test [16] has as its target T7, chimeric human/cynomolgus monkey CD89-III (human/cynomolgus monkey chimera, UniProt P24071 22-287).
T7 construct: also called ΔGly72-Gly96 human EC1-CD89; III (72-96)
T7 chain: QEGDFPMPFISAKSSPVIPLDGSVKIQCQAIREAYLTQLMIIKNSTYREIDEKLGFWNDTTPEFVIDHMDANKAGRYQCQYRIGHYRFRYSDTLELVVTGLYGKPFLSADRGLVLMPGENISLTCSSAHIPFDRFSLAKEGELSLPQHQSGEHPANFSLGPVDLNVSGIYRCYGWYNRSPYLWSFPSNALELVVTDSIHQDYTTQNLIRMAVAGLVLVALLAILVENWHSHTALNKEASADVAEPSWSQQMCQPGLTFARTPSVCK
Described as above.
Description: as §2

Test [17] has as its target T8, chimeric human/cynomolgus monkey CD89-hotspots (human/cynomolgus monkey chimera, UniProt P24071 22-287).
T8 construct: also called ΔThr58, Gln59; ΔArg73, Arg74, Lys76
T8 chain: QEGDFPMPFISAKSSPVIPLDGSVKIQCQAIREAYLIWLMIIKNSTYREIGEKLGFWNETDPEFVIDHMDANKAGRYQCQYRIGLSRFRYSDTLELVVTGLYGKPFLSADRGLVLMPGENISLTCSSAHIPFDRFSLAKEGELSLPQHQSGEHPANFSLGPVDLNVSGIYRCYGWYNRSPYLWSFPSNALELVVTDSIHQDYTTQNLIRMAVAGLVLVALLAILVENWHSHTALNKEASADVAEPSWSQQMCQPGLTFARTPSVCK
The description is as above.
Description: as §2

B1: mouse anti-human CD89-specific antibody 9H7 (antibody, mouse IgG1, V domains shown)
VH: QIQLVQSGPELKKPGETVKISCKASGYTFKNYGMNWVKQAPGKGLKWMAWINTYTGEPTHTDDFKGRFVFSLETSASTAYLQINNLKNEDTATYFCARWGLGTTEEAARDYWGQGTTLTVSS
VL: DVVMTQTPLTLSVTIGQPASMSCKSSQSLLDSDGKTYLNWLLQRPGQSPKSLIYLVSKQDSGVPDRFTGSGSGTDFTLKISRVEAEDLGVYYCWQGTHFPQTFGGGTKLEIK
On to B1, for which the “% blocking of MIP8a-PE binding” value in test [1] is over 90%. Further, the “percent IgA binding” value in test [2], in [3], in test [4] and in test [5] was 0 to 25% each time. Further, the “percent IgA binding (remaining)” value in test [6], in [7], in [8] and in [9] was 0 to 25% each time.

B2: chimeric mouse/human anti-human CD89 antibody 16D6 (antibody, human IgG4 S228P, kappa)
heavy: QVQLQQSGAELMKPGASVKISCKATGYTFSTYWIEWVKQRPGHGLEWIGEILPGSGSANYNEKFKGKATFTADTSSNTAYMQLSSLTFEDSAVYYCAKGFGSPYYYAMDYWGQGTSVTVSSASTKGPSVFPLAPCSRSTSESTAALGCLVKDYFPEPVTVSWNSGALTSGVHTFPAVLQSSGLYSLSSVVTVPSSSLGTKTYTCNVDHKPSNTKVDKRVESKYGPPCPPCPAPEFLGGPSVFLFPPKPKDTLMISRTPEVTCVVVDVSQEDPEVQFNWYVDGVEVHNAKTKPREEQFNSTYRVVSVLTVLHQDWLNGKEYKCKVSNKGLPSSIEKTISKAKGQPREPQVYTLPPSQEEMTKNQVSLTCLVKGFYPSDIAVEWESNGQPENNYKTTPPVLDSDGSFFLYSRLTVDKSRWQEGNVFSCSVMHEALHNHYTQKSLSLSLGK
light: EIVLTQSPALMAASPGEKVTITCSVSSSISSSNLHWYQQKSETSPKPWIYGTSKLASGVPVRFSGSGSGTSYSLTISNMEAEDAATYYCQQWSSFPLTFGGGTKLEIKRTVAAPSVFIFPPSDEQLKSGTASVVCLLNNFYPREAKVQWKVDNALQSGNSQESVTEQDSKDSTYSLSSTLTLSKADYEKHKVYACEVTHQGLSSPVTKSFNRGEC
notes: mouse V regions on stabilized (S239P) human IgG4/kappa; also called chimeric 16D6; 16D16; copies: 2 + 2
Regarding B2, the EC50 stood at 1.79 µg/mL in test [10] and 0.108 µg/mL in test [11].

B3: mouse anti-human CD89-specific antibody 26D6 (antibody, mouse IgG1, V domains shown)
VH: QIQLVQSGPELKKPGETVKISCKASGYTLTKYGMNWVKQAPGKGLKWMGWINTYTGEPTYADDFKGRFAFSLETSASTAYLQINNLKNEDTATYFCASLPLFGRDSFAYWGQGTLVTVSA
VL: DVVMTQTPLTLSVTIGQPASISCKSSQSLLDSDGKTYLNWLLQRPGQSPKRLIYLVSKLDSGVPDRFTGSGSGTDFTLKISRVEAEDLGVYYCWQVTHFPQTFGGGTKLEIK
notes: printed as 26B6 in some paragraphs; also called 26B6
With B3, the binding result is given as “no binding (tested: 10 µg/mL)” in test [12]; “no binding (tested: 10 µg/mL)” in [13]; “binds” in test [14]; “binds” in [15]; “binds” in [16]; “binds” in [17]. Besides, the “% blocking of MIP8a-PE binding” value in test [1] was over 90%. Further, the “percent IgA binding” value in test [2], in test [3], in [4] and in test [5] was 0 to 25% in each case. The “percent IgA binding (remaining)” value in test [6], in test [7], in [8] and in [9] was 0 to 25% each time.

B4: chimeric mouse/human anti-human CD89 antibody 20B4 (antibody, human IgG4 S228P, kappa)
heavy: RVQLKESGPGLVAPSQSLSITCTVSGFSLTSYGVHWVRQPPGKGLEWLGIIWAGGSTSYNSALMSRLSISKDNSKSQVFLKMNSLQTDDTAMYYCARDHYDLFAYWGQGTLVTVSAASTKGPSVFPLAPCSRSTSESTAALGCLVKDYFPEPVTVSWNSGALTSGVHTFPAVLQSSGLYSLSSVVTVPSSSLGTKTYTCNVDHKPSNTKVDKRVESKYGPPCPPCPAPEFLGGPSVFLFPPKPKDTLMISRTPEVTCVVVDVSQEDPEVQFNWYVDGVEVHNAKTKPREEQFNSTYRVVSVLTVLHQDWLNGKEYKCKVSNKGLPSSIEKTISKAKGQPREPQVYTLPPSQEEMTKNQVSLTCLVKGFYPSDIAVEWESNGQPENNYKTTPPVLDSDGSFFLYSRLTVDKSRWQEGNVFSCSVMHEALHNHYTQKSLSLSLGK
light: DILMTQSPSSMSVSLGDTVSITCHASQDISRNIGWLQQKPGKSFKGLIYHGTNLEDGVPSRFSGSGSGADYSLTISSLESEDFADYYCVQYAQFPRTFGGGTKLEIKRTVAAPSVFIFPPSDEQLKSGTASVVCLLNNFYPREAKVQWKVDNALQSGNSQESVTEQDSKDSTYSLSSTLTLSKADYEKHKVYACEVTHQGLSSPVTKSFNRGEC
notes: mouse V regions on stabilized (S239P) human IgG4/kappa; also called chimeric 20B4; copies: 2 + 2
On to B4, for which the EC50 in test [10] was determined as 0.296 µg/mL; in test [11], 0.009 µg/mL.

B5: chimeric mouse/human anti-human CD89 antibody 10E7 (antibody, human IgG4 S228P, kappa)
heavy: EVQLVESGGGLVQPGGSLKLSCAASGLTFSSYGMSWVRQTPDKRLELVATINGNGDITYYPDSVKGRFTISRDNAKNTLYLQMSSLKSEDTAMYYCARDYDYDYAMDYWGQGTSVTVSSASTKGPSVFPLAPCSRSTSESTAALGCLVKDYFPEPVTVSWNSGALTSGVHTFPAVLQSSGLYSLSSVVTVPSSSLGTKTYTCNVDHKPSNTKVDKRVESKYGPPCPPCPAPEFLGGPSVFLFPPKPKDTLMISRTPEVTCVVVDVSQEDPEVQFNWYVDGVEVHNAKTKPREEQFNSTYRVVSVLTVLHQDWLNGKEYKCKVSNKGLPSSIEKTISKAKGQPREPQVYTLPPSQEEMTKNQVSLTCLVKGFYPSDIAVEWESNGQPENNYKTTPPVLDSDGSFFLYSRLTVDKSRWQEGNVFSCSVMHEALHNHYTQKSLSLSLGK
light: DIQMTQSTSSLSASLGDSVTISCRASQDIINYLNWYQQKPDGTVKLLIYYTSRLHSGVPSRFSGSGSGTEYSLTVSNLEKEDIATYFCQQGKTLPYTFGGGTKLEIKRTVAAPSVFIFPPSDEQLKSGTASVVCLLNNFYPREAKVQWKVDNALQSGNSQESVTEQDSKDSTYSLSSTLTLSKADYEKHKVYACEVTHQGLSSPVTKSFNRGEC
notes: mouse V regions on stabilized (S239P) human IgG4/kappa; also called chimeric 10E7; copies: 2 + 2
Take B5: the EC50 in [10] amounted to 1.25 µg/mL; in test [11] it was 0.016 µg/mL.

B6: chimeric mouse/human anti-human CD89 antibody 8F3 (antibody, human IgG4 S228P, kappa)
heavy: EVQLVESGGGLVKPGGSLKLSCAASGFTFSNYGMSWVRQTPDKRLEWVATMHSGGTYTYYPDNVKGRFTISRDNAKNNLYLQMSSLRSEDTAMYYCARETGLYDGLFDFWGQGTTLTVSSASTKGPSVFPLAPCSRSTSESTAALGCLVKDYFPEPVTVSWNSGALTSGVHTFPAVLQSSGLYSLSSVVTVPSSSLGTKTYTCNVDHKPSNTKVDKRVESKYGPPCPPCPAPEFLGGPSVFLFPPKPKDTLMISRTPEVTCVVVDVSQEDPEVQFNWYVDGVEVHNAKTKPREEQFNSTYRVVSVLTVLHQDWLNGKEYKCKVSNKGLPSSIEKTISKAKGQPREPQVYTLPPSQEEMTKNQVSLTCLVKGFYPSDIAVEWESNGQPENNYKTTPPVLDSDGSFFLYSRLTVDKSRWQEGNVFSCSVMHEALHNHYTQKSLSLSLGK
light: DVQITQSPSYLAASPGETITINCRASKTISKYLAWYQEKPGKTNMLLIYSGSTLQSGVPSRFSGSGSGTDFTLTISSLEPEDLAMYYCQQHDEYPWTFGGGTKLEIKRTVAAPSVFIFPPSDEQLKSGTASVVCLLNNFYPREAKVQWKVDNALQSGNSQESVTEQDSKDSTYSLSSTLTLSKADYEKHKVYACEVTHQGLSSPVTKSFNRGEC
notes: mouse V regions on stabilized (S239P) human IgG4/kappa; also called chimeric 8F3; copies: 2 + 2
As to B6, the EC50 in [10] is 1.32 µg/mL; in test [11], 0.031 µg/mL.
